Results reported in patent US20080119412A1, “Polypeptides for Modulating Binding of Trp Channel Proteins and Trp- Associated Proteins” (NoNO Inc., priority 2003, published 2008).
Residues, ends and D or L forms follow the SMILES beside them. No end group written: not given here. *: point of attachment. Biotin = O=C1N[C@H]2[C@H](CS[C@H]2CCCCC(=O)*)N1

Key:
[1] = target: T1, ZO-1 d2 (Homo sapiens, UniProt Q07157, DEL264-264); experiment: G3 assay titration, GST-PDZ fusion / biotinylated peptide; format: binding
T1 construct: made in house; host or cells: E. coli (DH5alpha, BL21 or JM109)
T1 sequence (Q07157 with tags, fused parts or gaps DEL264-264): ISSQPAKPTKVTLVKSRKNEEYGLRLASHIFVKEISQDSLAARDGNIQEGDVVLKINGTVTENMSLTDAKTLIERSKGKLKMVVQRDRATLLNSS
Protocol: The G3 assay is identical to the G0 assay with the following exceptions. The peptides are typically present at 0.1 μM rather than 20 μM. The peptides are also pre-incubated with the HRP-streptavidin prior to adding to the assay plate. In the G0 assay, free peptide is incubated with the PDZ proteins prior to the addition of the HRP-streptavidin. Thus, for the G0 assay one can lose signal if the bound peptide dissociates from the PDZ protein prior to the addition of the HRP-streptavidin. In the G3 modified assay the HRP-streptavidin/peptide complex is added to the plate in one step, thus increasing the likelihood that all the bound peptide will be bound to HRP-streptavidin. The G3 modified assay increases the chance of observing weak interactions.
This example describes assays to identify binding between TRPM7 and PDZ domains. GST-PDZ fusions are produced that each contain an entire PDZ domain (or multiple PDZ domains), the collection encompassing approximately 90% of all PDZ domains identified in the human genome. (See Table 5 and Section V (PDZ Proteins and PL Protein Interactions Disclosure). Biotinylated peptide corresponding to 11 residues of Tat coupled to the C-terminal 9 amino acids of TRPM7 ([…]; SEQ ID NO:258) is synthesized and purified by HPLC.
• Nunc MaxiSorp 96 well Immuno-plate, Nunc • PBS pH 7.4 (phosphate buffered saline, 8 g NaCl, 0.29 g KCl, 1.44 g Na2HPO4, 0.24 g KH2PO4, add H2O to 1 liter and pH 7.4; 0.2 μm filter) • Assay Buffer: 2% BSA in PBS (20 g of bovine serum albumin per liter PBS, fraction V, ICN Biomedicals, cat#IC15142983 • Goat anti-GST polyclonal Ab, stock 5 mg/ml, stored at 4° C., Amersham Pharmacia cat#27-4577-01 • Dilute 1:1000 in PBS, final concentration 5 μg/ml. • HRP-Streptavidin, 2.5 mg/2 ml stock stored at 4° C., Zymed cat#43-4323, dilute 1:2000 into Assay buffer, final concentration of […] • Wash Buffer, PBS • Biotinylated peptides (HPLC purified, stock solution stored in −20° C. freezer) • GST-PRISM proteins (stock stored at −80° C., after 1st thaw store in −10° C. freezer) • TMB (3,3′,5,5′, teramethylbensidine), tablets, Sigma cat.#T5525 • Per plate, dissolve 1 tablet in 1 ml DMSO, add 9 ml Citrate/Phosphate buffer pH 5.4 and 2 μL H2O2 • 0.1 M H2SO4, Sigma cat.#S1526 • 12-w multichannel pipettor & tips • 50 ml reagent reservoirs, Costar#4870 • 50, 15 ml polypropylene conical tubes • Costar Transtar 96 Costar #7605 • Transtar 96 Cartridge Costar #7610 • Molecular Devices microplate reader (450 & 650 nm filters) with SoftMax Pro software *When using reagents stored at or 4° C. or −20° C., remove & keep on ice
• 1. Coat plate with 100 μl of 5 μg/ml anti-GST, overnight at 4° C. • 2. Dump contents of plate & out tap dry on paper towels • 3. Block with 200 μl Assay Buffer for 2 hrs at room temperature • 4. Prepare proteins at 5 μg/ml in Assay Buffer • 5. Wash 3× with cold PBS (4° C.), avoiding letting the plates dry out • 6. Add proteins at 50 μl per well, incubate 1 to 2 hrs at 4° C. • 7. Prepare peptides to desired concentration in Assay Buffer • 8. Wash 3× with cold PBS (4° C.), avoiding letting the plates dry out • 9. Add HRP-Streptavidin/peptide complex [prepared by incubating for 20 minutes at room temperature HRP-Streptavidin (1:2000) with the desired biotin-peptide concentration for 20 minutes at room temperature] at 50 μl per well on ice • 10. Place at room temperature for exactly 30 minutes • 11. Promptly wash 5× with PBS at room temperature • 12. Add 100 μl/well TMB substrate (write time on plate) • 13. Incubate in dark at room temperature for a maximum of 30 minutes • 14. Read plate at 25 minutes (650 nm), optional • 15. Stop reaction with 100 μl of 0.18 M H2SO4, 30 minutes after adding TMB • Take last reading at 450 nm soon after stopping reaction
The G3 assay was performed using 0.1 μM peptide representing 11 amino acids of Tat fused to the final 9 amino acids of TRPM7 ([…]; SEQ ID NO:258). […]

[2] = target: T1, ZO-1 d2; experiment: G assay, peptide binding to GST-PDZ fusion (Table 11); conditions: Table 11, titrations or binding assays
Protocol: (§1) The binding of labeled PL peptide (e.g., as listed in TABLE 2 and TABLE 4) to this surface is then measured. In a preferred embodiment, the assay is carried out as follows:
(§2) (1) A PDZ-domain polypeptide is bound to a surface, e.g. a protein binding surface. In a preferred embodiment, a GST/PDZ fusion protein containing one or more PDZ domains is bound to a polystyrene 96-well plate. […] In one embodiment, the GST/PDZ fusion protein is bound via an anti-GST antibody that is coated onto the 96-well plate. Adequate binding to the plate can be achieved when:
(§3) (2) Biotinylated PL peptides are allowed to react with the surface by addition of 50 μl per well of 20 μM solution of the biotinylated peptide in PBS/BSA for 10 minutes at 4° C., followed by an additional 20 minute incubation at 25° C. The plate is washed 3 times with ice cold PBS.
(§4) (3) The binding of the biotinylated peptide to the GST/PDZ fusion protein surface can be detected using a variety of methods and detectors known to one of skill in the art. In one embodiment, 100 μl per well of 0.5 μg/ml streptavidin-horseradish peroxidase (HRP) conjugate dissolved in BSA/PBS is added and allowed to react for 20 minutes at 4° C. The plate is then washed 5 times with 50 mM Tris pH 8.0 containing 0.2% Tween 20, and developed by addition of 100 μl per well of HRP-substrate solution (TMB, Dako) for 20 minutes at room temperature (RT). The reaction of the HRP and its substrate is terminated by addition of 100 μl per well of 1 M sulfuric acid, and the optical density (O.D.) of each well of the plate is read at 450 um.
(§5) (4) Specific binding of a PL peptide and a PDZ domain polypeptide is determined by comparing the signal from the well(s) in which the PL peptide and PDZ domain polypeptide are combined, with the background signal(s). […] Typically a specific or selective reaction will be at least twice background signal, more typically more than 5 times background, and most typically 10 or more times the background signal. […] Correspondingly, a statistical test (e.g. a T-test) comparing repeated measurements of the signal with -repeated measurements of the background will result in a p-value <0.05, more typically a p-value <0.01, and most typically a p-value <0.001 or less. As noted, in an embodiment of the G assay, the signal from binding of a given PL peptide to immobilized (surface bound) GST polypeptide alone is one suitable negative control (sometimes referred to as B1). Because all measurement are done in multiples (i.e. at least duplicate) the arithmetic mean (or, equivalently, average.) of several measurements is used in determining the binding, and the standard error of the mean is used in determining the probable error in the measurement of the binding. The standard error of the mean of N measurements equals the square root of the following: the sum of the squares of the difference between each measurement and the mean, divided by the product of (N) and (N−1). Thus, in one embodiment, specific binding of the PDZ protein to the platebound peptide is determined by comparing the mean signal (“mean S”) and standard error of the signal (“SE”) for a particular PL-PDZ combination with the mean B1.

[3] = target: T2, INADL d3 (Homo sapiens, UniProt Q8NI35); experiment: as above; conditions: Table 11, titrations or binding assays
T2 construct: made in house; host or cells: E. coli (DH5alpha, BL21 or JM109)
T2 sequence (Q8NI35 with tags, fused parts or gaps): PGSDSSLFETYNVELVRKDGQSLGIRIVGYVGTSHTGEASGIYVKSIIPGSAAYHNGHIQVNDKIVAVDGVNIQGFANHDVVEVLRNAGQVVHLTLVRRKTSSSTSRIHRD
Protocol: as §1, §2, §3, §4, §5

Compound | EC50 [1] [µM] | PDZ domain bound [2] | PDZ domain bound [3]
CC[C@H](C)[C@H](NC(=O)[C@H](CO)NC(=O)[C@@H](NC(=O)[C@H](C)NC(=O)[C@H](C)NC(=O)[C@@H](NC(=O)[C@H](C)NC(=O)[C@H](CCCNC(=N)N)NC(=O)[C@H](CCCNC(=N)N)NC(=O)[C@H](CCCNC(=N)N)NC(=O)[C@H](CCC(N)=O)NC(=O)[C@H](CCCNC(=N)N)NC(=O)[C@H](CCCNC(=N)N)NC(=O)[C@H](CCCCN)NC(=O)[C@H](CCCCN)NC(=O)[C@H](CCCNC(=N)N)NC(=O)CNC(=O)[C@H](Cc1ccc(O)cc1)NC(=O)CCCC[C@@H]1SC[C@@H]2NC(=O)N[C@@H]21)C(C)C)[C@@H](C)O)C(=O)N[C@@H](CC(N)=O)C(=O)N[C@@H](CC(C)C)C(=O)O [Peptide 1791] (Biotin-YGRKKRRQRRRAVAATSINL-OH) | < 0.1 | – | –
CC[C@H](C)[C@H](NC(=O)[C@H](CCCCN)NC(=O)[C@H](CCCNC(=N)N)NC(=O)[C@H](CC(=O)O)NC(=O)CNC(=O)[C@H](CCCNC(=N)N)NC(=O)[C@H](C)NC(=O)[C@H](CCCNC(=N)N)NC(=O)[C@H](CCCNC(=N)N)NC(=O)[C@H](CCCNC(=N)N)NC(=O)[C@H](CCC(N)=O)NC(=O)[C@H](CCCNC(=N)N)NC(=O)[C@H](CCCNC(=N)N)NC(=O)[C@H](CCCCN)NC(=O)[C@H](CCCCN)NC(=O)[C@H](CCCNC(=N)N)NC(=O)CNC(=O)[C@H](Cc1ccc(O)cc1)NC(=O)CCCC[C@@H]1SC[C@@H]2NC(=O)N[C@@H]21)C(=O)N[C@@H](CCCNC(=N)N)C(=O)N[C@H](C(=O)O)C(C)C [Peptide 1836] (Biotin-YGRKKRRQRRRARGDRKIRV-OH) | < 0.01 | – | –
DFRPSFKHILFRRARRGFRQ | – | ZO-1 D2 | INADL D3
ELLQFCRTPNPALKNGQYWV | – | ZO-1 D2 | INADL D3
ENLELPVNPSSVVSERISSV (Biotin-ENLELPVNPSSVVSERISSV) | – | – | INADL D3
FHSKTAGANTTDKELEVLSL | – | ZO-1 D2 | INADL D3
GRWTGRAMSAWKPTRRETEV (Biotin-GRWTGRAMSAWKPTRRETEV) | – | – | INADL D3
HAMNAAPRAMENAPALRTSH (Biotin-HAMNAAPRAMENAPALRTSH) | – | – | INADL D3
HDFRRAFKKILARGDRKRIV | – | ZO-1 D2 | INADL D3
HHLVAQRDIRQFQLQHWLAI | – | ZO-1 D2 | INADL D3
HSCCNRARQERLQRRRETQV (Biotin-HSCCNRARQERLQRRRETQV; cysteine pairing not given here) | – | ZO-1 D2 | INADL D3
ILNSIQVMRAQMNQIQSVEV | – | ZO-1 D2 | INADL D3
KHSRKSSSYSSSSTTVKTSY | – | ZO-1 D2 | INADL D3
KKKKQPGNSTKESESTNSVRLML | – | ZO-1 D2 | INADL D3
LASKSAEEGKQIPDSLSTDL | – | – | INADL D3
LAVLAYSITLVMLWSIWQYA | – | ZO-1 D2 | INADL D3
LNSCSNRRVYKKMPSIESDV (Biotin-LNSCSNRRVYKKMPSIESDV) | – | ZO-I D2 | INADL D3
LQFHRGSRAQSFLQTETSVI | – | – | INADL D3
NYKLNTDHAGSNDNIALLVQ (Biotin-NYKLNTDHAGSNDNIALLVQ) | – | ZO-1 D2 | –
PGQPPKVKSEFNSYSLTGYV | – | – | INADL D3
PIPAGGCTFSGIFPTLTSPL | – | – | INADL D3
PSSRASSRASSRPRPDDLEI | – | ZO-1 D2 | –
QDFRRAFRRILARPWTQTAW | – | ZO-1 D2 | INADL D3
RELVDRGEVRQFTLRHWLKV | – | ZO-I D2 | INADL D3
RRRRRRRGNTTDKELEVLSL | – | ZO-1 D2 | –
RRRRRRRGTNPAVAATSANL | – | ZO-1 D2 | –
RSGATIPLVGQDIIDLQTEV | – | – | INADL D3

Compound | EC50 [1] [µM] | PDZ domain bound [2] | PDZ domain bound [3]
SLIGPVQKEYQRELGKLSSP | – | – | INADL D3
SSKSKSSEESQTFFGLYKL | – | ZO-1 D2 | INADL D3
SSSRRDSSWSETSEASYSGL | – | ZO-1 D2 | –
STDNLVRPFMDTLASHQLYI | – | – | INADL D3
TEGNESSEATSPVNAIYSLA | – | ZO-1 D2 | –
TQGFPGPATWRRISSLESEV | – | – | INADL D3
TTNNNPNSAVNIKKIFTDV (Biotin-TTNNNPNSAVNIKKIFTDV) | – | ZO-1 D2 | INADL D3
VDPNSPAAKKKYVSYNNLVI (Biotin-VDPNSPAAKKKYVSYNNLVI) | – | ZO-1 D2 | INADL D3
VHKVRNKFKAKCSLCRLYII (Biotin-VHKVRNKFKAKCSLCRLYII; cysteine pairing not given here) | – | ZO-1 D2 | INADL D3
VPSDNIDSQGRNASTNDSLL (Biotin-VPSDNIDSQGRNASTNDSLL) | – | – | INADL D3
YGRKKRRQRRRARGDRKRIV (Biotin-YGRKKRRQRRRARGDRKRIV) | – | ZO-1 D2 | –
YGRKKRRQRRRARGDRKRWA (Biotin-YGRKKRRQRRRARGDRKRWA) | – | ZO-1 D2 | –
YGRKKRRQRRRARGDRKRWL (Biotin-YGRKKRRQRRRARGDRKRWL) | – | ZO-1 D2 | –
YGRKKRRQRRRARSDRGIWA (Biotin-YGRKKRRQRRRARSDRGIWA) | – | ZO-1 D2 | –
YGRKKRRQRRRAVAAASANL (Biotin-YGRKKRRQRRRAVAAASANL) | – | ZO-1 D2 | –
YGRKKRRQRRRAVAATSANL | – | ZO-1 D2 | INADL D3
YGRKKRRQRRRAVAATYSNL (Biotin-YGRKKRRQRRRAVAATYSNL) | – | ZO-1 D2 | –
YGRKKRRQRRRDKELEVLSL | – | ZO-1 D2 | –
YGRKKRRQRRREYLGLDVPV | – | ZO-1 D2 | INADL D3
YGRKKRRQRRRGASADSTQA | – | ZO-1 D2 | –
YGRKKRRQRRRKLSSIESDV (Biotin-YGRKKRRQRRRKLSSIESDV) | – | ZO-1 D2 | –
YGRKKRRQRRRNDNIALLVQ | – | ZO-1 D2 | –
YGRKKRRQRRRQDEEEGIWA (Biotin-YGRKKRRQRRRQDEEEGIWA) | – | ZO-1 D2 | –
YGRKKRRQRRRSEGVPDLLV | – | ZO-1 D2 | –
YSATYSELEDPGEMSPPIDL (Biotin-YSATYSELEDPGEMSPPIDL) | – | – | INADL D3
YVYSRVKNLNSSEGVPDLLV (Biotin-YVYSRVKNLNSSEGVPDLLV) | – | ZO-1 D2 | –
